Reference: patent US12703730B2, “Long-acting conjugates of GLP-2 derivatives” (HANMI PHARM. CO., LTD., priority 2017, dated 2026)
Square brackets hold non-standard residues; d marks the D form. Side chains are listed from the residue outwards. Ends that are not written are not given here. * marks the point of attachment. Acetyl(2-(4-imidazolyl)) = O=C(Cc1c[nH]cn1)*

Assays:
[1] = biological target: T1, human GLP-2 receptor (Homo sapiens, UniProt O95838); test: In vitro activity: cAMP accumulation (LANCE cAMP kit) in CHO-K1 cells expressing human GLP-2 receptor; format: cell-based; settings: for In vitro activity compared to human GLP-2 (%) (relative titer), GLP-2 derivative: GLP-2 derivative / Teduglutide
T1 construct: host or cells: CHO-K1
T1 sequence (O95838 1-553): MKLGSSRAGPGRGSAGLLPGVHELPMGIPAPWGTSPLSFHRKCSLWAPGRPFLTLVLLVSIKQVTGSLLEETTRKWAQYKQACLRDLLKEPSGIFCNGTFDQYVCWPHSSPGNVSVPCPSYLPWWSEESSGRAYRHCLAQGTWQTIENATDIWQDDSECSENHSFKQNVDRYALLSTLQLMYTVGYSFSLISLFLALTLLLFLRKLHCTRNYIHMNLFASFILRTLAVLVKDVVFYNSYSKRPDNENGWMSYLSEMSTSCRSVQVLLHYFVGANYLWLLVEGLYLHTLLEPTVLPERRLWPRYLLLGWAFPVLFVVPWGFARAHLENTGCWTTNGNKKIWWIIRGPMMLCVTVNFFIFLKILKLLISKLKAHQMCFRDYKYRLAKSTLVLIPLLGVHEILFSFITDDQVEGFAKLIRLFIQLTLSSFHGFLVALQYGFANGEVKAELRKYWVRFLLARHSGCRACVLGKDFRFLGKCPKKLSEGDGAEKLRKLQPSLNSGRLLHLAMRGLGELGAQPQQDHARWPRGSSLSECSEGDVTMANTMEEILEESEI
Text: In order to measure the activities of the GLP-2 derivatives and the long-acting conjugates of GLP-2 derivatives, which had been obtained in the previous Examples, a cell line in which a GLP-2 receptor is transformed was used to measure the cell activity in vitro. The cell line is one that has been transformed to express a human GLP-2 receptor in Chinese hamster ovary (CHO)—K1, and thus is suitable for measuring the activity of GLP-2 (DiscoverX, U.S.A.).
In order to measure the activities of the GLP-2 derivatives and the long-acting conjugates thereof, human GLP-2 and Teduglutide (Gattex®, Shire) were subjected to a 3-fold serial dilution from 166.7 nM to 0.0028 nM; the GLP-2 derivatives were subjected to a 3-fold serial dilution from 500 nM to 0.0085 nM; and the long-acting conjugates of GLP-2 derivatives were subjected to a 3-fold serial dilution from 3000 nM to 0.0508 nM. The culture solution was removed from the cultured CHO-K1 cells, in which the human GLP-2 receptor is expressed, and then each of the serially diluted material was added to the cells in an amount of 5 μL, respectively. Thereafter, the buffer (5 μL) containing a cAMP antibody was added and then the cultivation was conducted at room temperature for 15 minutes. Then, a detection mix (10 μL) containing a cell lysis buffer was added thereto to dissolve the cells and reacted at room temperature for 60 minutes. The cell lysates, upon completion of the reaction, were applied to a LANCE cAMP kit (PerkinElmer, U.S.A.) to calculate the EC50 value via accumulated cAMP, and the values were compared with one another.

[2] = inactivation by DPP IV; Bolette H. et al. 2000; cited from earlier work
[3] = Pharmacokinetics of long-acting conjugates of GLP-2 derivatives in SD rat (Example 5); format: in vivo; settings: normal SD rats, single subcutaneous injection 2.52 mg/kg, serum, ELISA
Protocol: The pharmacokinetics of the long-acting conjugates of GLP-2 derivatives were compared in normal rats.
Pharmacokinetic parameters thereof were calculated using the serum concentrations.

[4] = tested on: C57BL/6 mice; test: Effect of increasing in vivo intestinal weight in normal mice (Example 7); settings: 13 days, Teduglutide 7.5 & 15 nmol/kg/BID, conjugate 4.15, 7.5, 15, 30 nmol/kg/Q2D
Protocol: Five mice were placed in each group and autopsied after 13 days of the administrations. The small intestines were perfused, and the weight of the small intestines and the length of the villi within the small intestines were measured.

[5] = Comparison of pharmacokinetics between long-acting conjugate of GLP-2 derivative and Teduglutide in SD rat (Example 6); settings: serum, sc, 2.5 mg/kg
Protocol: (§1) 8-week-old normal rates were divided into a group administering Teduglutide (2.5 mg/kg) and a group administering the long-acting conjugate of CA GLP-2 RK (3.4K PEG) derivative (0.705 mg/kg). The test materials were subcutaneously injected once into the normal rats in each group (3 rats/group). Thereafter, whole blood was obtained by collecting blood samples from the coccygeal vein at 0.25, 0.5, 1, 1.5, 2, 3, 4, 6, 8, and 24 hours for the group administering Teduglutide; and at 4, 8, 24, 48, 72, 96, 120, 144, 168, 192, 216, 240, 264, 288, 312, and 336 hours for the group administering the long-acting conjugate of CA GLP-2 RK derivative. The whole blood was placed in a 1.5 mL microtube, centrifuged at room temperature at 5,000 rpm for 10 minutes, and then sera were separated and stored at −20° C. Concentrations of the stored sera from each group were quantified using an ELISA analysis method. For Teduglutide, a GLP-2 ELISA Kit (Alpco, #48-GP2HU-E01.1) was used. For the long-acting conjugate of CA GLP-2 RK derivative, a biotin-labeled GLP-2 polyclonal antibody (Phoenix Pharmaceuticals, #B-028-14) was bound to a plate coated with Streptavidin (Roche, #11645692001), and then reacted with the serum for 1 hour. After washing, anti-human IgG4-HPR (Alpha Diagnosis, #10124) was added thereto and allowed to react at room temperature for 1 hour. Thereafter, the resultants were subjected to a color reaction using a TMB reagent, and the absorbance was measured at a wavelength of 450 nm. Pharmacokinetic parameters thereof were calculated using the serum concentrations.

[6] = in vivo; settings: SD, rat, sc, 2.5 mg/kg
Protocol: as §1

[7] = relative titer from cAMP EC50, CHO-K1 cells expressing human GLP-2 receptor

For “CA GLP-2 KK: GLP-2 derivative SEQ ID NO: 3: X1 imidazoacetyldeshistidine, X2 glycine, X30 lysine, X34 lysine (XGDGSFSDEMNTILDNLAARDFINWLIQTKITDK; X1 imidazoacetyldeshistidine; GLP-2 derivative; (1) Xaa is imidazoacetyldeshistidine)”, the “In vitro activity compared to human GLP-2 (%) (relative titer), GLP-2 derivative” value [1, 7] was 205.6%.

In the case of “CA GLP-2 KC: GLP-2 derivative SEQ ID NO: 2: X1 imidazoacetyldeshistidine, X2 glycine, X30 lysine, X34 cysteine (XGDGSFSDEMNTILDNLAARDFINWLIQTKITDC; X1 imidazoacetyldeshistidine; GLP-2 derivative; (1) Xaa is imidazoacetyldeshistidine)”, the “In vitro activity compared to human GLP-2 (%) (relative titer), GLP-2 derivative” value [1, 7] is reported as 149.3%.

In the case of Glucagon-like peptide-2 [GLP-2], the in vivo half-life [2] is given as no more than 7 min.

For “Long-acting conjugate of CA GLP-2 RC (10K PEG) derivative: CA-GLP-2 RC covalently linked to the immunoglobulin Fc by 10 kDa PEG at the 34th cysteine ([Acetyl(2-(4-imidazolyl))]GDGSFSDEMNTILDNLAARDFINWLIQTRITDC([PEG 10 kDa-immunoglobulin Fc]); also: Cys34 linked via 10 kDa PEG to immunoglobulin Fc)”, the “Activation of the GLP-2 receptor / relative potency (in words)” value ([1]; CHO-K1 cells expressing human GLP-2 receptor, cAMP) was “higher activities compared to the long-acting conjugate of GLP-2 derivative (CA GLP-2 KC)”, the “In vitro activity compared to human GLP-2 (%) (relative titer), conjugate of GLP-2 derivative” value ([1]; relative titer from cAMP EC50, CHO-K1 cells expressing human GLP-2 receptor, long-acting conjugates) was 46.0% and the AUClast [3] was 1384.9499 ± 186.8176 µg·h/mL. It also gave a Cmax [3] of 13350.4 ± 3611.4 ng/mL, an MRTlast [3] of 88.9 ± 9.4 h and a T1/2 [3] of 54.4 ± 6.9 h. It also gave a Tmax [3] of 26.7 ± 20.1 h.

For “CA GLP-2 RK: GLP-2 derivative SEQ ID NO: 4: X1 imidazoacetyldeshistidine, X2 glycine, X30 arginine, X34 lysine ([Acetyl(2-(4-imidazolyl))]GDGSFSDEMNTILDNLAARDFINWLIQTRITDK)”, the “In vitro activity compared to human GLP-2 (%) (relative titer), GLP-2 derivative” value [1, 7] was 333.2%.

In the case of `CC[C@H](C)[C@H](NC(=O)[C@H](Cc1ccccc1)NC(=O)[C@H](CC(=O)O)NC(=O)[C@H](CCCNC(=N)N)NC(=O)[C@H](C)NC(=O)[C@H](C)NC(=O)[C@H](CC(C)C)NC(=O)[C@H](CC(N)=O)NC(=O)[C@H](CC(=O)O)NC(=O)[C@H](CC(C)C)NC(=O)[C@@H](NC(=O)[C@@H](NC(=O)[C@H](CC(N)=O)NC(=O)[C@H](CCSC)NC(=O)[C@H](CCC(=O)O)NC(=O)[C@H](CC(=O)O)NC(=O)[C@H](CO)NC(=O)[C@H](Cc1ccccc1)NC(=O)[C@H](CO)NC(=O)CNC(=O)[C@H](CC(=O)O)NC(=O)CNC(=O)[C@@H](N)Cc1c[nH]cn1)[C@@H](C)O)[C@@H](C)CC)C(=O)N[C@@H](CC(N)=O)C(=O)N[C@@H](Cc1c[nH]c2ccccc12)C(=O)N[C@@H](CC(C)C)C(=O)N[C@H](C(=O)N[C@@H](CCC(N)=O)C(=O)N[C@H](C(=O)N[C@@H](CCCCN)C(=O)N[C@H](C(=O)N[C@H](C(=O)N[C@@H](CC(=O)O)C(=O)O)[C@@H](C)O)[C@@H](C)CC)[C@@H](C)O)[C@@H](C)CC` [Teduglutide], the “In vitro activity compared to human GLP-2 (%) (relative titer), GLP-2 derivative” value [1, 7] is reported as 147.5%, the “length of the villi within the small intestines” value [4] is reported as “increase in the length of the villi” and the “weight of the small intestines” value [4] is reported as “increased in a dose-dependent manner”. The half-life [5] was 0.6 ± 0.1 h, the AUC(0-t) [6] was 2.6 ± 0.581 µg·h/mL and the Cmax [6] was 1680 ± 744 ng/mL. The MRT last [6] was 1.4 ± 0.1 h and the Tmax [6] was 0.7 ± 0.3 h.
